Experimental data published in article doi:10.1101/786475 (bioRxiv, 2019).

Tests used:
Experiment in all cases: peptide or protein array
[1] = biological target: Frd1p (spotted on the yeast ProtoArray) (S. cerevisiae, UniProt P32614 1-470)
[2] = biological target: T1, Pol30p (spotted on the yeast ProtoArray) (S. cerevisiae, UniProt P15873 1-258)
T1 sequence (looked up): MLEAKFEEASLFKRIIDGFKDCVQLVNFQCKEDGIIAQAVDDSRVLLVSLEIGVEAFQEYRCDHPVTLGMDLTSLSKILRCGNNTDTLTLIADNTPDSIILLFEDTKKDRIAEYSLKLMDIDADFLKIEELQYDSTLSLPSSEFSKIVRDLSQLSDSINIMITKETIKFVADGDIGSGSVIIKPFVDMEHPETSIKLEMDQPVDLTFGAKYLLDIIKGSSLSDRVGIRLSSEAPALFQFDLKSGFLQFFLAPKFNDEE

[3] = biological target: T2, Cap2p (spotted on the yeast ProtoArray) (S. cerevisiae, UniProt P13517 1-287)
T2 sequence (looked up): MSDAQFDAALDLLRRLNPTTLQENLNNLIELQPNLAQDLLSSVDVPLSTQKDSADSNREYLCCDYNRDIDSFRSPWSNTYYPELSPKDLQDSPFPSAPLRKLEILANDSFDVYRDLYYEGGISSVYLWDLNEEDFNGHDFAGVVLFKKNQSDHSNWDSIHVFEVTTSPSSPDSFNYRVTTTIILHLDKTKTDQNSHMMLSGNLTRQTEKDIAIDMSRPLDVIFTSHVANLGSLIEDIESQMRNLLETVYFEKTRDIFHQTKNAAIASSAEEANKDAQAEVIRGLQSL

[4] = biological target: T3, Qcr6p (spotted on the yeast ProtoArray) (S. cerevisiae, UniProt P00127 1-147)
T3 sequence (looked up): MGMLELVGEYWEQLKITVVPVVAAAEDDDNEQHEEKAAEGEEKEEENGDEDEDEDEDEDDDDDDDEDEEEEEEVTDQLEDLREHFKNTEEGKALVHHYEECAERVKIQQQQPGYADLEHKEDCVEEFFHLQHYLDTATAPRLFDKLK

[5] = biological target: T4, Nap1p (spotted on the yeast ProtoArray) (S. cerevisiae, UniProt P25293 1-417)
T4 sequence (looked up): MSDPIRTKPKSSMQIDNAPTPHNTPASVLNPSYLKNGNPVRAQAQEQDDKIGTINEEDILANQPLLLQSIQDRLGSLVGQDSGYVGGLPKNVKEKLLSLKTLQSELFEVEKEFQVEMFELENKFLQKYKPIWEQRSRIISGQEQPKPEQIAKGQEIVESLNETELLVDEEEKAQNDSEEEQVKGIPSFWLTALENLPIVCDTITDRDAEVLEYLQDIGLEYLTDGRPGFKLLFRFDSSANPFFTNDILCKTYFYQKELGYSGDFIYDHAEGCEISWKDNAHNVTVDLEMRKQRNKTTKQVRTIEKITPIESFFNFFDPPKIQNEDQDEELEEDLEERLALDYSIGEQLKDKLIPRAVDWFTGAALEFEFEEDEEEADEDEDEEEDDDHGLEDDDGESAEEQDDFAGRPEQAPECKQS

[6] = biological target: T5, Erg20p (spotted on the yeast ProtoArray) (S. cerevisiae, UniProt P08524 1-352)
T5 sequence (looked up): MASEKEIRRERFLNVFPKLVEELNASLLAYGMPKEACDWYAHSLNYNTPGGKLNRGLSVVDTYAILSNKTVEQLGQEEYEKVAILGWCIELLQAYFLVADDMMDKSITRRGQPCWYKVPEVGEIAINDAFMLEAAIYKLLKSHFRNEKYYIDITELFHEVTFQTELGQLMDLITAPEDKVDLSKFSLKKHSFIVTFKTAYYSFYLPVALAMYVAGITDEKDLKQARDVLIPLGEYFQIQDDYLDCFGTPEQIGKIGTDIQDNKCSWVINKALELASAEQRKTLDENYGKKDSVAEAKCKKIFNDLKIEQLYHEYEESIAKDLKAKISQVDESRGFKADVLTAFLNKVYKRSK

[7] = biological target: T6, Gpp2p (spotted on the yeast ProtoArray) (S. cerevisiae, UniProt P40106 1-250)
T6 sequence (looked up): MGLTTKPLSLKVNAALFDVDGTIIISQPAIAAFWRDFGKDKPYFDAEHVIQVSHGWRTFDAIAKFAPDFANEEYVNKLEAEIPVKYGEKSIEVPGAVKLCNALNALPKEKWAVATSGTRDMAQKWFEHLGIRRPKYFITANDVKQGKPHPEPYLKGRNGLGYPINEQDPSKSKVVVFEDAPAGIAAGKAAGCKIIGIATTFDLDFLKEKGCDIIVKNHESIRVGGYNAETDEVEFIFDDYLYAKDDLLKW

[8] = biological target: Mal32p (spotted on the yeast ProtoArray) (S. cerevisiae, UniProt P38158 1-584)
Sequence of Mal32p (spotted on the yeast ProtoArray) (P38158 whole entry): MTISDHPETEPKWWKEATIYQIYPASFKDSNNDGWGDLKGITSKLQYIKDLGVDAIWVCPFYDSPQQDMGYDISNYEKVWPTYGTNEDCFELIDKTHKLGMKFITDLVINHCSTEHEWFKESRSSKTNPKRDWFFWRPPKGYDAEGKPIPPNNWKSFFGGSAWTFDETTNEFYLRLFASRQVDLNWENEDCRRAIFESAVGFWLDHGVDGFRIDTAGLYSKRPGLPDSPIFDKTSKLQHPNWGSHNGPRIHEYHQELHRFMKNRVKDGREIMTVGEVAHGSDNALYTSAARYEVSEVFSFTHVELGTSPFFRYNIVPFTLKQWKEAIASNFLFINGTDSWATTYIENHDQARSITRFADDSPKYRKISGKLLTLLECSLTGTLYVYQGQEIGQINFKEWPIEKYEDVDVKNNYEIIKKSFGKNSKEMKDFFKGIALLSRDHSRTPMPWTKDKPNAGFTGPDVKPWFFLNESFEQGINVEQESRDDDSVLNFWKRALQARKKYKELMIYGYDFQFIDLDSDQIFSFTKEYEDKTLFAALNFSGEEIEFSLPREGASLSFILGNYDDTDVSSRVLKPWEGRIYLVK

Measured: binding result

Sequence of Frd1p (spotted on the yeast ProtoArray) (P32614 whole entry): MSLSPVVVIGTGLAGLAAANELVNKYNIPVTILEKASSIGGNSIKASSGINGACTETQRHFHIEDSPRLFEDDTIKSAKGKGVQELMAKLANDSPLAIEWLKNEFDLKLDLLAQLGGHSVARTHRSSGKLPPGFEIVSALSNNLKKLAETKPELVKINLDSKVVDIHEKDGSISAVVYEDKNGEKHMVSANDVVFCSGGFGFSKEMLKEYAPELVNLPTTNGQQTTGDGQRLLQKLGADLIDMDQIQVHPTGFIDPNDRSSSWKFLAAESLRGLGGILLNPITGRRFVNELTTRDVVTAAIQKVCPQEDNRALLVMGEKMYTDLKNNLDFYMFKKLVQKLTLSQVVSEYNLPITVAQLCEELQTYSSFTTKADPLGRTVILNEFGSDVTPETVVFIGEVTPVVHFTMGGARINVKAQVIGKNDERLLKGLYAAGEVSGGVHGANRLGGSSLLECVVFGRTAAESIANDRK

B1: purified and biotinylated cytoplasmic domain of the Msb2p protein (HIS-Msb2p^CYT) (domain or fragment, S. cerevisiae, UniProt P32334 1207-1306, looked up)
chain: AFKYIIRRRIQSQEIIKNPEISSISSSEFGGEKNYNNEKRMSVQESITQSMRIQNWMDDSYYGHGLTNNDSTPTRHNTSSSIPKISRPIASQNSLGWNEV
modifications: biotinylated in vitro (sites not given)
binds: [1] | [2] | [3] | [4] | [5] | [6] | [7] | [8]
